B1: mouse tissue transglutaminase 2 C-terminal D3D4 domains (mTG2 D3D4) [modified: biotin on the AVI-tag; biotin on the AVI-tag] [mouse] / mouse full-length GPR56 (GPR56 FL), wild type, on HEK293T cells [mouse] (parent complex)
chain 1: TGVAMRIRVGDSMSMGNDFDVFAHIGNDTSETRECRLLLCARTVSYNGVLGPECGTEDINLTLDPYSENSIPLRILYEKYSGCLTESNLIKVRGLLIEPAANSYLLAERDLYLENPEIKIRVLGEPKQNRKLVAEVSLKNPLSDPLYDCIFTVEGAGLTKEQKSVEVSDPVPAGDLVKARVDLFPTDIGLHKLVVNFQCDKLKSVKGYRNVIIGPA
chain 2: GSPREDFRFCGQRNQTQQSTLHYDQSSEPHIFVWNTEETLTIRAPFLAAPDIPRFFPEPRGLYHFCLYWSRHTGRLHLRYGKHDYLLSSQASRLLCFQKQEQSLKQGAPLIATSVSSWQIPQNTSLPGAPSFIFSFHNAPHKVSHNASVDMCDLKKELQQLSRYLQHPQKAAKRPTAAFISQQLQSLESKLTSVSFLGDTLSFEEDRVNATVWKLPPTAGLEDLHIHSQKEEEQSEVQAYSLLLPRAVFQQTRGRRRDDAKRLLVVDFSSQALFQDKNSSQVLGEKVLGIVVQNTKVTNLSDPVVLTFQHQPQPKNVTLQCVFWVEDPASSSTGSWSSAGCETVSRDTQTSCLCNHLTYFAVLMVSSTEVEATHKHYLTLLSYVGCVISALACVFTIAAYLCSRRKSRDYTIKVHMNLLSAVFLLDVSFLLSEPVALTGSEAACRTSAMFLHFSLLACLSWMGLEGYNLYRLVVEVFGTYVPGYLLKLSIVGWGFPVFLVTLVALVDVNNYGPIILAVRRTPERVTYPSMCWIRDSLVSYVTNLGLFSLVFLFNLAMLATMVVQILRLRPHSQNWPHVLTLLGLSLVLGLPWALVFFSFASGTFQLVILYLFSIITSFQGFLIFLWYWSMRFQAQGGPSPLKNNSDSAKLPISSGSTSSSRI

The assay covers variants of B1. Put plainly: flow cytometry on cells; 5 nM TG2 D3D4 (tetramerized); GPR56 FL constructs expressed on HEK293T cells; n = 3; parent: 1; read off a plot. On the technique in general: A flow cytometer gives signals particle by particle.
On to chain 2 R79D, for which the ratio to parent was roughly 0.27.
Regarding chain 2 R8E, the ratio to parent was roughly 4.7.
chain 2 A112R, chain 2 S114R: the ratio to parent is roughly 5.3.
The value for chain 2 Q12A was roughly 0.69.

These data come from article PMC7547085, “Specific and direct modulation of the interaction between adhesion GPCR GPR56/ADGRG1 and tissue transglutaminase 2 using synthetic ligands” (Scientific Reports, 2020).
